How the values were obtained:
[1] = target: biotinylated Arr3_ΔC loaded with IP6 (bovine) (UniProt P32120); assay: SEC
[2] = target: biotinylated Arr3_ΔC loaded with IP6 (bovine, UniProt P32120, biotin (sulfo-NHS-Biotin, >95% biotinylated)); assay: ELISA
[3] = target: Arr3_ΔC (preactivated arrestin3, truncated after residue 392) (bovine, UniProt P32120); assay: pull-down

Row | Molecule | stoichiometry N [1] | binding result [2] | binding result [3]
1 | biotinylated Arr3_ΔC loaded with IP6 (from UniProt P32120 1-392) (domain or fragment) | 3 | – | –
2 | Fab7 (Fab, V domains shown) VH: EVQLVESGGGLVQPGGSLRLSCAASGFNVSSSYIHWVRQAPGKGLEWVASISSYYGYTYYADSVKGRFTISADTSKNTAYLQMNSLRAEDTAVYYCARKSMYHRGWGWLSWVYGAMDYWGQGTLVTVSS VL: DIQMTQSPSSLSASVGDRVTITCRASQSVSSAVAWYQQKPGKAPKLLIYSASSLYSGVPSRFSGSRSGTDFTLTISSLQPEDFATYYCQQSYYYPITFGQGTKVEIK | – | binds | binds

Reference: paper PMC10370059 (bioRxiv, 2023)
